From US20220380455A1 (Alector, published 2022)
“And” between values parts separate entries of the source, which are not always exact repeats. Equal values may be shown once.

T1: cynomolgus (cyno) MS4A6A (cynomolgus, UniProt Q9H2W1 1-246 (human entry))
T1 construct: Full-length protein expressed in transfected HEK293, U937 or K562 cells (flow cytometry)
T1 chain: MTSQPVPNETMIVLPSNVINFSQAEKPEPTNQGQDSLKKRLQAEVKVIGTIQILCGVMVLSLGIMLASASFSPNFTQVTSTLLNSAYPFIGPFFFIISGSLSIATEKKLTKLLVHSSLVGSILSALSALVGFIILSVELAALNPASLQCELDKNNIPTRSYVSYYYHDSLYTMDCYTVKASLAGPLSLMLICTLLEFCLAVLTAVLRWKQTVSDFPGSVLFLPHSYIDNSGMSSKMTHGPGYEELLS

T2: MS4A6A ECL2 peptide (human)
T2 construct: also called MS4A6A ECL-2 peptides
T2 peptide: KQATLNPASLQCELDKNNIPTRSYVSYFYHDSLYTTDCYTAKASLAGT

T3: MS4A6A ECL1 peptide (human)
T3 construct: the description elsewhere gives ECL1 as 68-84; Human and cyno ECL1 are said to be identical
T3 peptide: SASFSPNFTQVTSTLLNS

T4: BSA-MS4A6A-ECL2 peptide (human, BSA-conjugated)
T4 construct: Synthetic peptide derived from ECL2, conjugated to BSA, coated on the ELISA plate; also called MS4A6A-ECL2 BSA conjugated peptide; BSA-MS4A6A-ELC2 peptide
T4 peptide: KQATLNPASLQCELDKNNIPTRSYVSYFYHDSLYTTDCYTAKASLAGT


Legend:
[1] = target: T1, cynomolgus (cyno) MS4A6A; test: flow cytometry, hybridoma supernatant, HEK293 transfected with cyno MS4A6A over parental HEK293; Screen 1
Description: (§1) Positive clones were expanded and then rescreened for specificity against HEK293 cells overexpressing cyno MS4A6A and parental HEK293 cells. Briefly, previously prepared, cryopreserved transiently-transfected cells were labeled with LIVE/DEAD Fixable Aqua Dead Cell Stain Kit (ThermoFisher Scientific L34957) on ice for 30 minutes. After a wash with PBS, 2×10⁵ cells were aliquoted per well in 96-well round bottom plates and incubated with 50 μl of culture supernatant on ice for 30 mins. […] Following this secondary incubation, the cells were again washed twice with ice-cold FACS buffer and resuspended in a final volume of 200 μl of FACS buffer. Analysis was performed on a FACS Canto system (BD Biosciences), with sort gates drawn to exclude dead (Aqua-positive) cells. […] The screen was repeated twice, and the numbers reported here represent the ratio of mean fluorescence level in transfected cells over parental cells.

[2] = target: T2, MS4A6A ECL2 peptide; test: array SPR (Carterra MX-96), antibody captured on anti-mouse IgG-Fc, ECL2 peptide injected
Description: (§2) Binding kinetic characterization of the purified antibodies to MS4A6A ECL1 and ECL2 peptides was performed by Carterra (South San Francisco, Calif.) using a proprietary array Surface Plasmon Resonance (SPR) instrument (MX-96) as follows. Antibodies were printed onto a CMD5OOD chip (Xantec #SPMX CMD500D lot #SC CMD500D0117.a Exp. 31.12.18) using the Continuous Flow Microspotter (CFM). First, the chip was activated with 100 mM MES pH 5.5, 100 μL EDC (133 mM final), 100 μL of S-NHS (33.3 mM final), for 7 minutes. A lawn of anti-mouse IgG-Fc (Jackson ImmunoResearch CAT #115-005-071 lot#130410) was injected for 15 minutes to establish a surface density of 10000-12000 RU, after which the chip surface was deactivated with 1 M ethanolamine at pH 8.5 for 10 minutes. Anti-MS4A6A antibodies in question, in the form of hybridoma supernatants diluted 2:1 with HBS-EP+buffer (Teknova CAT #H8022), were then printed as duplicates with a 20 minute and a 5 minutes print from the same sample solution. Control antibodies were diluted to 20 μ/ml for printing.
(§3) To perform kinetic analysis, the peptides in question were prepared in HBS-EP+buffer with lmg/ml BSA at final assay concentrations of 2000 nM, 400 nM, 80 nM, 16 nmM, and 3.2 nM. These were then injected on the chip for five minutes, followed by a seven-minute dissociation period at 8 uL per second in a non-regenerative kinetic series. Duplicate measurements for each anti-MS4A6A antibody were taken to ensure reproducibility.
(§4) Kₐ (association rate constant; Kₒₙ), Kd (dissociation rate constant; Koff) and KD (equilibrium constant) to MS4A6A ECL-2 peptides were calculated for each of the 23 anti-MS4A6A antibodies tested, the results of which are shown below in Table 5 (clones that bound too weakly to determine these values are denoted as N/A in Table 5).

[3] = target: T1, cynomolgus (cyno) MS4A6A; test: flow cytometry, hybridoma supernatant, HEK293 transfected with cyno MS4A6A over parental HEK293; Screen 2
Description: as §1

[4] = target: T3, MS4A6A ECL1 peptide; test: array SPR (Carterra MX-96), antibody captured, peptide injected
Description: as §2, §3, §4

[5] = target: T4, BSA-MS4A6A-ECL2 peptide; test: peptide ELISA, hybridoma supernatant
Description: (§5) Anti-MS4A6A hybridoma supernatants were tested for binding to MS4A6A peptides derived from ECL1 (amino acid residues 68-85 of human MS4A6A of SEQ ID NO:1) and ECL2 (amino acid residues 138-185 of human MS4A6A of SEQ ID NO:1) sequences, using an enzyme-linked immunosorbent assay (ELISA). Briefly, 96-well polystyrene plates were coated with 1-10 μg/mL of synthetic free or BSA-conjugated peptides in coating buffer (0.05M carbonate buffer, pH9.6, Millipore Sigma C3041) overnight at 4° C. Coated plates were then blocked with ELISA diluent (PBS+0.5% BSA+0.05% Tween20) for 1-hour, washed 3×300 μL in PBST (PBS+0.05% Tween20, Thermo 28352), and then the antibodies were added at various dilutions (100-1000×) in ELISA diluent. After 30 mins incubation (room temperature, with shaking), the plates were washed 3×300 μl in PBST. A secondary anti-mouse HRP antibody (Jackson Immunoresearch CAT #115-035-003) was added at a 1:1000 dilution in ELISA diluent (50 μL/well) and incubated for 30 minutes at room temperature with shaking. After a final set of washes (3×300 μl in PBST), 50 μL of TMB substrate (BioFx TMBW-1000-01) was added and the reaction was then quenched after 5-10 mins with 50 μL of stop solution (BioFx BSTP-1000-01). The quenched reaction wells were detected for absorbance at […] with a BioTek Synergy Microplate Reader using GENS 2.04 software.

[6] = target: T3, MS4A6A ECL1 peptide; test: peptide ELISA, hybridoma supernatant
Description: as §5

[7] = target: T2, MS4A6A ECL2 peptide; test: array SPR (Carterra MX-96), antibody captured, peptide injected; both duplicates N/A
Description: as §2, §3, §4

Binder	ratio of APC MFI on MS4A6A+/HEK parental cells [1] [ratio]	Kd [2]	koff [2]	kon [2]	ratio of APC MFI on MS4A6A+/HEK parental cells [3] [ratio]	binding result [4]	binding result [5]	binding result [6]	binding result [7]
6A-3 (antibody, V domains shown, Mouse hybridoma antibody, tested as hybridoma supernatant (mouse IgG, detected or captured via anti-mouse IgG Fc); also called anti-MS4A6A antibody 6A-3) VH: EVQLQQSGPELVKPGASVKMSCKASGYTFTDYFMKWVKQSHGKSLEWIGDINPKNGDTFYNQKFKGKATLTVDKSSSTAYMQLNSLTSEDSAVYYCARPGYFDVWGAGTTVTVSS VL: not shown	24.1	120 nM and 94 nM	0.0006 s⁻¹ and 0.00065 s⁻¹	4800 M⁻¹ s⁻¹ and 6800 M⁻¹ s⁻¹	63.7	no binding (tested: 2000 nM)	–	–	–
6A-20 (antibody, V domains shown, Mouse hybridoma antibody (SJL mouse), tested as hybridoma supernatant (mouse IgG, detected or captured via anti-mouse IgG Fc); also called anti-MS4A6A antibody 6A-20) VH: EVQLQQSGPELVKPGASVKMSCKASGYTFTDYFMKWVKQSHGKSLEWIGDINPKNGDTFYNQKFKGKATLTVDKSSSTAYMQLNSLTSEDSAVYYCARPGYFDVWGAGTTVTVSS VL: DIVMTQAAPSVPVTPGESVSISCRSSKSLLHSDGNTYLYWFLQRPGQSPQLLIYRMSNLAPGVPDRFSGSGSGTAFTLRISRVEAEDVGVYYCMQHLEFPFIFGAGTKLELK	–	–	–	–	–	–	no binding	no binding	no binding (tested: 2000 nM)
6A-2 (antibody, V domains shown, Mouse hybridoma antibody, tested as hybridoma supernatant (mouse IgG, detected or captured via anti-mouse IgG Fc); also called anti-MS4A6A antibody 6A-2) VH: DVQLQESGPGLVKPSQSLSLTCSVTGYSITSGYYWNWIRQFPGNKLEWLGYITYDGDTDYNPSLKNRVSITRDTSKNQFFLNLISVTPEDTATYYCAREDSFGYWGQGTLVTVSA VL: not shown	25.7	200 nM and 120 nM	0.001 s⁻¹ and 0.00098 s⁻¹	5300 M⁻¹ s⁻¹ and 8300 M⁻¹ s⁻¹	75.5	no binding (tested: 2000 nM)	–	–	–

Next, values leading:

ratio of APC MFI on MS4A6A+/HEK parental cells [1] [ratio]	Kd [2]	koff [2]	kon [2]	ratio of APC MFI on MS4A6A+/HEK parental cells [3] [ratio]	binding result [4]	binding result [5]	binding result [6]	binding result [7]	Binder
18	190 nM	0.0013 s⁻¹	6600 M⁻¹ s⁻¹	95.2	–	–	no binding	–	6A-10 (antibody, V domains shown, Mouse hybridoma antibody, tested as hybridoma supernatant (mouse IgG, detected or captured via anti-mouse IgG Fc); also called anti-MS4A6A antibody 6A-10) VH: QIQLVQSGPELKKPGETVKISCKASGYTFTNYGMNWVKQAPGKGLKWMGWINTYTGEPTYADDFKGRFAFSLETSASTAYLQINNLKNEDMATYFCARAYGNSAWFAYWGQGTLVTVSA VL: QIVLSQSPAILSASPGEKVTMTCRASSSVSYMHWYQQKPGSSPKPWIYATSNLASGVPARFSGSGSGTSYSLTISRVEAEDAATYYCQQWSSNPWTFGGGTKLEIK
3.6	–	–	–	8.3	–	no binding	no binding	no binding (tested: 2000 nM)	6A-7 (antibody, V domains shown, Mouse hybridoma antibody, tested as hybridoma supernatant (mouse IgG, detected or captured via anti-mouse IgG Fc); also called anti-MS4A6A antibody 6A-7) VH: QVQLQQSGAELARPGASVKMSCKASGYTFTSYAMHWVKQRPGQGLEWIGYINPSSGYTYYNQKFKDKATLTADKSSSTAYMQLSSLTSEDSAVYYCARSYYGNYEGYLDVWGAGTTVTVSS VL: NIVLTQSPASLAVSLGQRATISCRASESVESYGKSFIHWYQQKPGQPPKLLIFLASNLESGVPARFSGSGSRTDFTLTIDPVEADDAATYYCQQNNVGPYTFGGGTKLEIK
